From patent US20250122303A1, “TREATMENT AND PREVENTION OF CANCER USING HER3 ANTIGEN-BINDING MOLECULES” (Hummingbird Bioscience Pte. Ltd., priority 2021, published 2025)

Tests used:
[1] = target: T1, mouse HER3 (Mus musculus, UniProt Q61526); experiment: ELISA cross-reactivity, mouse HER3; type: binding
T1 construct: purchased Sino Biological Inc., China
Experimental: (§1) ELISAs were used to determine the binding specificity of the antibodies. The antibodies were analysed for binding to human HER3 polypeptide, as well as respective mouse, rat and monkey homologues of HER3 (Sino Biological Inc., China). The antibodies were also analysed for their ability to bind to human EGFR and human HER2 (Sino Biological Inc., China).
(§2) ELISAs were carried out according to standard protocols. Briefly, 96-well plates (Nunc, Denmark) were coated with 0.1 μg/ml of target polypeptide in phosphate-buffered saline (PBS) for 16 h at 4° C. After blocking for 1 h with 1% BSA in Tris buffer saline (TBS) at room temperature, the anti-HER3 antibody was serially diluted with the highest concentration being 10 μg/ml, and added to the plate. Post 1 h incubation at room temperature, plates were washed three times with TBS containing 0.05% Tween 20 (TBS-T) and were then incubated with a HRP-conjugated anti-His antibody (Life Technologies, Inc., USA) for 1 h at room temperature. After washing, plates were developed with colorimetric detection substrate 3,3′,5,5′-tetramethylbenzidine (Turbo-TMB; Pierce, USA) for 10 min. The reaction was stopped with 2M H2SO4, and OD was measured at 450 nm. […]

[2] = target: T2, rat HER3 (Rattus norvegicus, UniProt Q62799); experiment: ELISA cross-reactivity, rat HER3; type: binding
T2 construct: purchased Sino Biological Inc., China
Experimental: as §1, §2

[3] = Toxicity in BALB/c mice (haematology, clinical chemistry, observations); type: in vivo, mouse; conditions: single IP dose 1000 μg
Experimental: Hemotoxicity was investigated in an experiment in which 6-8 week old female BALB/c mice (20-25 g) were injected intraperitoneally with a single dose of 1000 μg anti-HER3 10D1 antibody or an equal volume of PBS. Blood samples were obtained at 96 hours post injection and analysed for numbers of different types of white blood cells by flow cytometry and electrolyte indices for NA^+, K^+, and Cl^−.
Mice were also analysed for correlates hepatotoxicity, nephrotoxicity and pancreatic toxicity at 96 hours post injection. […] Left bars represent vehicle, right bars represent 10D1 treatment, end points of the Charles River reference range indicated with dotted lines.
3 mice were injected with each treatment, 4 mice were injected with PBS control. Blood samples were obtained at 96 hours post injection and analysed for RBC indices (total RBC count, haematocrit, haemoglobin, platelet count, mean corpuscular volume, mean corpuscular haemoglobin, mean corpuscular haemoglobin concentration) and WBC indices (total WBC count, lymphocyte count, neutrophil count, monocyte count). Analysis was performed using a HM5 Hematology Analyser.
A further study was performed in the BALB/c mice to assess the toxicological effects of repeat doses of 500 μg (˜25 mg/kg) 10D1 F.FcA or 10D1F.FcB. Antibody was administered once a week for four weeks. Blood was obtained 28 days after the first administration.

[4] = system: FaDu cell-line derived mouse model of head and neck squamous cell carcinoma; experiment: FaDu cell-line derived xenograft model; type: in vivo
Experimental: Tumor volumes were measured 3 times a week using a digital caliper and calculated using the formula [L ×W2/2]. Study End point was considered to have been reaches once the tumors of the control arm measured >1.5 cm in length.
The model was established by subcutaneous injection of 1×10^6 FaDu cells into the right flanks of female NPG mice (NOD scid gamma phenotype; n=6 mice per treatment group).
10D1 was administered IP, weekly at 500 μg per dose (for a total of 4 doses). Control treatment groups received an equal volume of PBS, or the same dose of an isotype control antibody.
The model was established by subcutaneous injection of 1×10^6 FaDu cells into the right flanks of female NCr nude mice (n=6 mice per treatment group).
10D1 was administered IP, biweekly at 500 μg per dose (for a total of 8 doses); a control treatment group received an equal volume of PBS.
Tumour cells were inserted with matrigel subcutaneously into the right flanks of female NCr nude mice.
Murine tumour efficacy studies were performed using cell-line derived xenograft (CDX) models in mice. Female NCr nude mice (5-8 weeks old, 21-29 g) were subcutaneously implanted with N87, A549, FaDu, OvCAR8 cells. Treatment was initiated when tumours reached approximately 100 to 200 mm^3. […] Tumours were measured twice per week using a calliper and tumour volume (mm^3) was calculated. […]

T2 sequence (Q62799 20-1339): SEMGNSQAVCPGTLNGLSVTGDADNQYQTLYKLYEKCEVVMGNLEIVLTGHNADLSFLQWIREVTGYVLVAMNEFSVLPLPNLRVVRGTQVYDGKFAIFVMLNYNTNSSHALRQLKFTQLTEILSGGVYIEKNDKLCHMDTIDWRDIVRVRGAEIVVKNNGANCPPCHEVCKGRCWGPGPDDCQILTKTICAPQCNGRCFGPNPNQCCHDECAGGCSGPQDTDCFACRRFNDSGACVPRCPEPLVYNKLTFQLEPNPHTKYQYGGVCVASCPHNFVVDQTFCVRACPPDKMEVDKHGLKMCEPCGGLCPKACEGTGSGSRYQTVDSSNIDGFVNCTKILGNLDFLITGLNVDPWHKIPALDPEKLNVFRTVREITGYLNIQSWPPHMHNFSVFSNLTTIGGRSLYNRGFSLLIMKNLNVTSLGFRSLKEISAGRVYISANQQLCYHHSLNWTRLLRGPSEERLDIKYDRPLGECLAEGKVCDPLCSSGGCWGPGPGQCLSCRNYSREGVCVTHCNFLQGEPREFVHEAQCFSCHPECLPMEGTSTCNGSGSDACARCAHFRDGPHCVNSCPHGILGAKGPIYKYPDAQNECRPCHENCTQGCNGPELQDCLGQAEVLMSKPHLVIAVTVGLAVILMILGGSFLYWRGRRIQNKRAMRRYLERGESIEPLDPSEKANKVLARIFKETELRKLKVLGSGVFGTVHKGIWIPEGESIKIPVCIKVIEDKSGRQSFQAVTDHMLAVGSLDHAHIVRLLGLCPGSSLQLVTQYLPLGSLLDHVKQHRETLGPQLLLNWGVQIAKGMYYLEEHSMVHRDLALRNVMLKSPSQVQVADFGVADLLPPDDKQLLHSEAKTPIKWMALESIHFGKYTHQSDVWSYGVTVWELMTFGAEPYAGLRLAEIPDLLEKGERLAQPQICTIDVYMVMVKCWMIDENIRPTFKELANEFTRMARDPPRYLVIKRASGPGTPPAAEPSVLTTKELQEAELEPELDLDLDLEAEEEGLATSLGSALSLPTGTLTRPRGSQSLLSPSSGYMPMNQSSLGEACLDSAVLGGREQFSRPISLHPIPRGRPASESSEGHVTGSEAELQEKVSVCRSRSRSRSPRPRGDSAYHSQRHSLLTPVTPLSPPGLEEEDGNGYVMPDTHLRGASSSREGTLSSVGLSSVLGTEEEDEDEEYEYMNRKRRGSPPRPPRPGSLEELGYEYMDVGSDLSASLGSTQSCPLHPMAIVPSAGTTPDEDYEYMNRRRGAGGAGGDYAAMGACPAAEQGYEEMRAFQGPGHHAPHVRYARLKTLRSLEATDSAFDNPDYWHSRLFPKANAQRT
T1 sequence (Q61526 20-1339): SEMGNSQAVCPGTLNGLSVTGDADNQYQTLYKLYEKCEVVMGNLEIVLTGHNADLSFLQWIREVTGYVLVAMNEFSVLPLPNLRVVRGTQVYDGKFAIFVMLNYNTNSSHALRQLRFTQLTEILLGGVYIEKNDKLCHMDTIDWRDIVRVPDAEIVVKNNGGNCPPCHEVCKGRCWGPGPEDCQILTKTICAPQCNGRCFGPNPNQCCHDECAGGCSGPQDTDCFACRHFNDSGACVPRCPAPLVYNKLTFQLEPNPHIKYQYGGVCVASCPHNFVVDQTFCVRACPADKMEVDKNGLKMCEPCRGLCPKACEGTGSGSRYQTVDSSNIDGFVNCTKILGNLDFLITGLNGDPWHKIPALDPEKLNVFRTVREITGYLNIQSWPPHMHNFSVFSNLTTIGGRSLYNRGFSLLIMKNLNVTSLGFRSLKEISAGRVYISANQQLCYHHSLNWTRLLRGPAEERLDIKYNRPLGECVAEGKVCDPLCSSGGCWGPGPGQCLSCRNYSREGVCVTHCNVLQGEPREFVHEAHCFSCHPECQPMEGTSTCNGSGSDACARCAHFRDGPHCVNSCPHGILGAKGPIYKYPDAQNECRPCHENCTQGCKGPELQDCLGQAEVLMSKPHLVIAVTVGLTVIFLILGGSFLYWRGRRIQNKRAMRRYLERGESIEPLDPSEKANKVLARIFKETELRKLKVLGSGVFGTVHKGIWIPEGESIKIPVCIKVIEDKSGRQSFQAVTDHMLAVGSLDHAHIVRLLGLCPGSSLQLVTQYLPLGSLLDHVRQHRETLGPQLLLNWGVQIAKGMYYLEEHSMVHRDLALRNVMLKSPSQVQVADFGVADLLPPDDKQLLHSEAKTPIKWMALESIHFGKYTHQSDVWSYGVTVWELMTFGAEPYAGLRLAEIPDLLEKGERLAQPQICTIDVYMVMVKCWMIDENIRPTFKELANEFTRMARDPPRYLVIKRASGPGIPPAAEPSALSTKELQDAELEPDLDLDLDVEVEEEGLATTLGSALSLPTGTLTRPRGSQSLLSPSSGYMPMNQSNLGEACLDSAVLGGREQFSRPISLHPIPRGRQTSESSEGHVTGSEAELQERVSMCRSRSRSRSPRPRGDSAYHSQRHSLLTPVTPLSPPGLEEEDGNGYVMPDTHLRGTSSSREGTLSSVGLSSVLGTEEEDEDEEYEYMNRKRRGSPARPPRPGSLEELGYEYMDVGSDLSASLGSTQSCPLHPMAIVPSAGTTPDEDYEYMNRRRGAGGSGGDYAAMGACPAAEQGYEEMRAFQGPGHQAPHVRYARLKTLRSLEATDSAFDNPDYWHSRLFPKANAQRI

B1: 10D1: anti-HER3 antibody clone, VH SEQ ID NO:24, VL SEQ ID NO:74; [1] of Example 2.2 (antibody, V domains shown)
VH: DVQLQESGPDLVKPSQSLSLTCTVTGYSITSGYSWHWIRQFPGNKLEWMGSIHYSGGTNYNPSLKSRISITRDTSKNQFFLQLNSVTTEDTATYFCARMTTAPRYPFDYWGQGTTLTVSS
VL: DIVMTQSQKFMSTSVGDRVSVTCKASQIVGSNVAWYQQKPGQSPKPLIYSASYRYSGVPDRFTASGSGTDFTLTITNVQSEDLAEYFCQQYSSHPLTFGAGTKLELK
binding / cross-reactivity with mouse HER3 [1]: substantial cross-reactivity | binding / cross-reactivity with rat HER3 [2]: substantial cross-reactivity | clinical signs, gross necroscopy or weight [3]: No differences | kidney, liver or pancreatic indices ([3]; 96 hours): no effect on the kidney, liver or pancreatic indices | numbers of different blood cell types and electrolyte indices ([3]; 96 hours): within the Charles River reference range | inhibition of tumor growth ([4]; NCr nude mice, IP biweekly 500 μg, 8 doses): ~86% | inhibition of tumor growth ([4]; NPG mice, IP weekly 500 μg, 4 doses): ~85%
